Measurements reported in paper PMC1977788 (1992).

Assays:
EGFR [1] = biological target: T1, EGFR (Homo sapiens, UniProt P00533); assay: 125I-EGF whole-cell saturation binding, ZR-PR-LT cells + suramin pretreatment, Woolf analysis
EGFR [2] = biological target: T1, EGFR; assay: 125I-EGF whole-cell saturation binding, ZR-75-9a1 FCSdcc 2 years, Woolf analysis
EGFR [3] = biological target: T1, EGFR; assay: 125I-EGF whole-cell saturation binding, ZR-75-1 cells, Woolf analysis
EGFR [4] = biological target: T1, EGFR; assay: 125I-EGF whole-cell saturation binding, ZR-75-9a1 FCSdcc 1 week, Woolf analysis
EGFR [5] = biological target: T1, EGFR; assay: 125I-EGF whole-cell saturation binding, ZR-75-9a1 FCSdcc 4 weeks, Woolf analysis
EGFR [6] = biological target: T1, EGFR; assay: 125I-EGF whole-cell saturation binding, ZR-75-9a1 FCSdcc 2 weeks, Woolf analysis
EGFR [7] = biological target: T1, EGFR; assay: 125I-EGF whole-cell saturation binding, ZR-75-9a1 8 uM cells, Woolf analysis
EGFR [8] = biological target: T1, EGFR; assay: 125I-EGF whole-cell saturation binding, ZR-PR-LT cells, Woolf analysis
EGFR [9] = biological target: T1, EGFR; assay: 125I-EGF whole-cell saturation binding, ZR-PR-LT cells + acid wash, Woolf analysis

B1: EGF (protein)
chain: NSYPGCPSSYDGYCLNGGVCMHIESLDSYTCNCVIGYSGDRCQTRDLRWWELR
Kd (EGFR [1]): 0.31 nM
Kd (EGFR [2]): 0.18 nM
Kd (EGFR [3]): 0.23 nM
Kd (EGFR [4]): 0.37 nM
Kd (EGFR [5]): 0.14 nM
Kd (EGFR [6]): 0.28 nM
Kd (EGFR [7]): 0.19 nM
Kd (EGFR [8]): 0.26 nM
Kd (EGFR [9]): 0.21 nM
